This series can be described thus: protein stability index of a GFP-peptide fusion (GPS, HEK-293T) (PSI 1-6); higher = more stable.
[1] abbreviates: treatment: DMSO, c terminus: a fixed tail appended.
[2] abbreviates: treatment: MLN4924 1 uM, 8 h, c terminus: a fixed tail appended.

The results in this text go back to the supplement of paper PMC10567573.

± gives the standard deviation.
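Also: 24-mer peptide tiles fused after GFP, lentivirally expressed, FACS-sorted into six equal bins by GFP/DsRed ratio, decoded by Illumina sequencing, PSI is the read-weighted mean bin number.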

For AAAIIVYDITKEETFSTLKNWVKE [RAB22A], the protein stability index by setting is: under setting [1], 2.67 ± 1.1; under setting [2], 1.95 ± 0.86.
Consider AALTNKHSQELTNEKEKALQAQVQ [SASS6], for which the protein stability index under setting [1] turned out to be 5.3 ± 0.086 and the protein stability index under setting [2] is 5.46 ± 0.19.
Regarding AAMFGGSFVESANSEVYLPNINKI [RHOBTB1], the protein stability index is, setting by setting: under setting [1], 2.93 ± 0.23; under setting [2], 2.93 ± 0.18.
In the same order, the values of AAVKLADFGLAIEVQGDQQAWFGF [CAMK2B] are 2.33 ± 0.75 and 2.62 ± 0.77.
As for AAYFLLSTNDKTVKLWKVSERDKR [PPP2R2B], the protein stability index was 2.51 ± 0.51 under setting [1] and 2.49 ± 0.26 under setting [2].
In the same order, the values of ACDELFSYLIEKVKRKKNVLRLCC [PRAME] are 2.99 ± 0.43 and 2.7 ± 0.61.
In the case of ADIISTVEFNHTGELLATGDKGGR [PPP2R2C], the protein stability index turned out to be 4.52 ± 0.42 under setting [1] and 4.66 ± 0.44 under setting [2].
The corresponding values for AEGVVLSDSPDAADSTSFDVQLGD [PPTC7] are 5.4 ± 0.59 and 5.64 ± 0.15.
Take AEKKQELDKLRNEWASHTAALTNK [SASS6]: the protein stability index by setting is: under setting [1], 4.38 ± 0.26; under setting [2], 4.79 ± 0.25.
The corresponding values for AEKLCIYTDNSIRPEELLQMELLL [CCND1] are 2.28 ± 0.078 and 2.09 ± 0.36.
The corresponding values for AERLFENQLVGPESIAHIGDVMFT [APMAP] are 2.99 ± 0.38 and 3.16 ± 0.31.
With AERRRAGRLLLTLPLLRQTAGKVL [ESRRA], the protein stability index was 2.348 ± 0.02 under setting [1] and 2.27 ± 0.23 under setting [2].
Take AEWLLAVRSIQPEEKERIGQFVFA [AASDHPPT]: the protein stability index is, setting by setting: under setting [1], 2.29 ± 0.15; under setting [2], 2.13 ± 0.18.
Consider AEYPANGSGADRIYDLNIPAFVKF [NCK2], for which the protein stability index is, setting by setting: under setting [1], 2.88 ± 0.33; under setting [2], 2.7 ± 0.29.
For the sequence AFADTHSCRELLRIADKFTQHNFQ [KLHL20], the protein stability index stood at 2.09 ± 0.21 under setting [1] and 2.02 ± 0.28 under setting [2].
Consider AFASGSDDATCRLYDLRADREVAI [GNB5], for which the protein stability index is 3.12 ± 0.22 under setting [1] and 2.95 ± 0.11 under setting [2].
In the same order, the values of AFRSDDTKGHPRAVSQPFRLSSSL [CDC14A] are 3.43 ± 0.2 and 3.47 ± 0.26.
For the sequence AFYRLADLFGWSQLIYNHITTRVN [ADD1], the protein stability index came to 3.25 ± 0.54 under setting [1] and 2.88 ± 0.35 under setting [2].
With AGAARVARWRRLRLQQLRRLRGLL [FBXO33], the protein stability index is, setting by setting: under setting [1], 3.13 ± 0.4; under setting [2], 3.74 ± 0.43.
In the same order, the values of AGFCMFVLSLVKKHYRLQFYMFAW [CDS1] are 2.05 ± 0.36 and 2.16 ± 0.38.
Take AGGELGISLNMCLLGALVLLGLGV [PBXIP1]: the protein stability index under setting [1] is 2.72 ± 1 and the protein stability index under setting [2] was found to be 2.7 ± 0.87.
The corresponding values for AGGFQQRQGLKYCLPLTFCIHTGL [FBXO3] are 2.58 ± 0.57 and 2.4 ± 0.24.
The corresponding values for AGPAFDSDPEISDVDEDEPGGLVG [PPFIA4] are 5.19 ± 0.56 and 5.77 ± 0.07.
As for AGSRQALSFEVPPCNYDPEKWIQ, the protein stability index (treatment: DMSO, c terminus: native) stood at 2.69 ± 0.59 and the protein stability index (treatment: MLN4924 1 uM, 8 h, c terminus: native) was 3.35 ± 0.51.
As for AHEIERLQMEMKEDDVSFLMKHKS [TRIM35], the protein stability index reads like this: under setting [1], 4.83 ± 0.24; under setting [2], 4.67 ± 0.25.
AIETAMEDLKGHVAETSGETIQGF [TPRG1] yielded a protein stability index under setting [1] of 4.82 ± 0.26 and a protein stability index under setting [2] of 5.03 ± 0.3.
With AIGALLVCYHYYADWFMSLGVGLL [TMEM40], the protein stability index was 3.087 ± 0.018 under setting [1] and 2.86 ± 0.62 under setting [2].
As for AKDLRAPPEQGKIFIARRSLLDEL [SOAT1], the protein stability index was 3.23 ± 0.37 under setting [1] and 3.15 ± 0.33 under setting [2].
Regarding AKPGSTEKGLPLRKTHVLLGRSHD [MFSD9], the protein stability index was found to be 3.79 ± 0.23 under setting [1] and 3.86 ± 0.17 under setting [2].
AKPNMIISVNGDVITIKSESTFKN [FABP4]: the protein stability index runs as follows: under setting [1], 3 ± 0.56; under setting [2], 3.03 ± 0.66.
The corresponding values for AKVKGHRSQKHKERIRLLRQKREA [C18orf25] are 4.07 ± 0.57 and 4.38 ± 0.16.
In the same order, the values of AKVNILLVENDQQLQKILSIPQSS [ACSBG2] are 2.21 ± 0.17 and 2.07 ± 0.18.
Regarding ALAAATAAAAAAASAAAATAAFTT [SPAG8], the protein stability index reads like this: under setting [1], 3.04 ± 0.18; under setting [2], 3.25 ± 0.18.
Sequence ALGSRGWEPFDWGRLLEALCREEP [FANCE] came in with a protein stability index under setting [1] of 2.61 ± 0.2 and a protein stability index under setting [2] of 2.82 ± 0.33.
Take ALIPYVLNPSKLMEKEINGSKVTC [ATL3]: the protein stability index was 2.13 ± 0.2 under setting [1] and 2.2 ± 0.39 under setting [2].
For the sequence ALSGASQPGPSGAPAQRATRGFLR [RETREG3], the protein stability index was 4.59 ± 0.16 under setting [1] and 4.78 ± 0.073 under setting [2].
For the sequence AMELKVEDPFYWVSPGVLVLLAVL [MOG], the protein stability index is, setting by setting: under setting [1], 2.8 ± 0.94; under setting [2], 2.55 ± 0.34.
In the same order, the values of AMEVNTSASEILYSAPPGDPLSTN [NFE2L1] are 4.45 ± 0.27 and 4.55 ± 0.23.
On to AMPDPAGPDGHLPAVATLCDLFDR [ESRRA], for which the protein stability index is 4.27 ± 0.23 under setting [1] and 4.4 ± 0.23 under setting [2].
For the sequence ANAAKHTQDSARVNPQDGTNTLTR [EHMT1], the protein stability index is, setting by setting: under setting [1], 5.13 ± 0.18; under setting [2], 5.19 ± 0.14.
As for ANPSIRDKEGYNSIHYAAAYGHRQ [ANKRD44], the protein stability index under setting [1] worked out at 3.52 ± 0.22 and the protein stability index under setting [2] came to 3.6 ± 0.3.
The corresponding values for ANRWSFEGMDRWIKKIEEHAPGVP [RAB40A] are 3.33 ± 0.26 and 3.4 ± 0.33.
As for APADPTAREGLAAPPRRLRSRKVS [FCHO1], the protein stability index came out at 5.12 ± 0.16 under setting [1] and 5.304 ± 0.013 under setting [2].
As to APELVERVQSVDFMRTDPVCQKLL [KLHL14], the protein stability index under setting [1] is 3.85 ± 0.36 and the protein stability index under setting [2] came to 4.12 ± 0.2.
For the sequence APLQSVFQGQKTELNNCISMLVAG [TRIM63], the protein stability index under setting [1] amounted to 2.85 ± 0.19 and the protein stability index under setting [2] stood at 2.88 ± 0.22.
With APSIDLFSTDAFSSPPQGASPVPE [SNAP91], the protein stability index runs as follows: under setting [1], 4.94 ± 0.34; under setting [2], 5.04 ± 0.21.
In the same order, the values of APWLSLFPPEGNMEDKEMTGPQLP [ZNF263] are 4.27 ± 0.27 and 4.75 ± 0.28.
As for AQEKAADVQARLNRSDHGIFHSRT [FCHSD1], the protein stability index by setting is: under setting [1], 4.19 ± 0.072; under setting [2], 4.37 ± 0.48.
As to AQEVRPRRWKLQVLDLRKNSHQDF [PRAME], the protein stability index was determined as 2.64 ± 0.37 under setting [1] and 2.96 ± 0.31 under setting [2].
Sequence AQTFLFQGQPVVNRPLSLKDQQTF [TRADD] returned a protein stability index under setting [1] of 3.25 ± 0.26 and a protein stability index under setting [2] of 3.39 ± 0.23.
Sequence AQVFPESPESESDHEHEEADLELS [GNAS] came in with a protein stability index under setting [1] of 5.44 ± 0.27 and a protein stability index under setting [2] of 5.46 ± 0.23.
In the case of ARMLFSAVEWARNIPFFPDLQITD [NR2F2], the protein stability index reads like this: under setting [1], 2.1 ± 0.21; under setting [2], 2.09 ± 0.28.
Consider ARQATNLKVNFFFERIMKYERLAR [FBXO39], for which the protein stability index stood at 2.75 ± 0.82 under setting [1] and 2.41 ± 0.32 under setting [2].
On to ASETFNYSAIDRVKSRGKRLALEK [PI4K2A], for which the protein stability index is, setting by setting: under setting [1], 4.22 ± 0.044; under setting [2], 4.4 ± 0.26.
The corresponding values for ASFHHKLHHKRLAKECMLQEENKS [CBY2] are 4.1 ± 0.26 and 4.27 ± 0.2.
As for ASKEEKEDWLSHALSRKKSQGLAR [FBF1], the protein stability index is, setting by setting: under setting [1], 4.57 ± 0.18; under setting [2], 4.57 ± 0.32.
For ASTPTPDDKLFQKLAKVYSYAHGW [CPN1], the protein stability index is, setting by setting: under setting [1], 2.38 ± 0.14; under setting [2], 2.33 ± 0.26.
Regarding ATALAPLQTDHYAALLGSNSESWG [SPSB2], the protein stability index reads like this: under setting [1], 3.31 ± 0.32; under setting [2], 3.28 ± 0.14.
In the same order, the values of ATFLVTFGNSEKPETMTCRLSNNQ [ZFYVE21] are 2.39 ± 0.15 and 2.24 ± 0.19.
Consider ATQIQQLLQDKQFELALQLAEMKD [VPS39], for which the protein stability index runs as follows: under setting [1], 3.11 ± 0.32; under setting [2], 3.41 ± 0.43.
Turning to ATRVAPERLFGSAANVVSAKRNRL [ZBED1], the protein stability index under setting [1] amounted to 3.83 ± 0.28 and the protein stability index under setting [2] was 3.82 ± 0.14.
AVHLCNALVCQVDNDHKEAVGKMG [ZER1]: the protein stability index is, setting by setting: under setting [1], 3.75 ± 0.23; under setting [2], 3.77 ± 0.13.
As for AVNLSVSTLPSLREEEEQVRAHAP [KCNG1], the protein stability index was 3.83 ± 0.54 under setting [1] and 4.21 ± 0.44 under setting [2].
Take AWKHGNIHLSAPCIYSEVMEALDL [PCMTD2]: the protein stability index runs as follows: under setting [1], 2.71 ± 0.26; under setting [2], 2.73 ± 0.27.
As to CDPGTDPCPEDASTPRPPEASSSP [TLE6], the protein stability index is, setting by setting: under setting [1], 5.61 ± 0.26; under setting [2], 5.58 ± 0.28.
On to CEEKAKKNANRPLLDEIVPVYRRD [ACBD3], for which the protein stability index came to 4.72 ± 0.18 under setting [1] and 4.61 ± 0.55 under setting [2].
For the sequence CETCVGSWSIQMRQHHHQSSFPGS, the protein stability index turned out to be 2.37 ± 0.3 under setting [1] and 2.34 ± 0.44 under setting [2].
Regarding CGLLPISPEALSLGEVAYHDYHGI [ADD1], the protein stability index is, setting by setting: under setting [1], 2.18 ± 0.24; under setting [2], 2.35 ± 0.41.
CGSARPKPYDPPGEKMVAAKVKGE [ATF4] registered a protein stability index under setting [1] of 4.57 ± 0.17 and a protein stability index under setting [2] of 4.82 ± 0.33.
For the sequence CKAFFKRSIQGHNDYICPATNQCT [ESR2], the protein stability index is, setting by setting: under setting [1], 2.15 ± 0.4; under setting [2], 2.45 ± 0.51.
With CKSGAAAKGGFSGCSAVLSGGSSS [KRT71], the protein stability index by setting is: under setting [1], 3.26 ± 0.46; under setting [2], 3.44 ± 0.066.
As to CLLSSNSRSLLTGGYNLASVSVWD [TLE6], the protein stability index turned out to be 2.4 ± 0.38 under setting [1] and 2.18 ± 0.18 under setting [2].
